Data: publication PMC3433420

What was measured:
[1] = target: phosphopeptides corresponding to ErbB1 intracellular tyrosine sites (human); experiment: fluorescence polarisation; saturation binding in solution; rhodamine-labeled peptide fixed at 10 nM, protein titrated 0.002-10 µM (twelve two-fold dilutions); 20 minutes at room temperature in the dark; assay buffer 20 mM HEPES, 100 mM KCl, 0.1% Tween-20, 5 mM DTT, pH 7.8; apparent KD; assay detection threshold of 20 µM
[2] = target: phosphopeptides corresponding to ErbB2 intracellular tyrosine sites (human); experiment: as above
[3] = target: phosphopeptides corresponding to ErbB4 intracellular tyrosine sites (human); experiment: as above
[4] = target: ErbB1 pY801 phosphopeptide, rhodamine-labelled (human); experiment: fluorescence polarisation; saturation binding in solution: rhodamine peptide fixed at 10 nM, protein titrated 0.002-10 uM, 20 min at room temperature; assay buffer 20 mM HEPES, 100 mM KCl, 0.1% Tween-20, 5 mM DTT, pH 7.8; apparent KD
[5] = target: MET pY1313 phosphopeptide, rhodamine-labelled; experiment: as above
[6] = target: ErbB4 pY906 phosphopeptide, rhodamine-labelled (human); experiment: as above

B1: GRAP2 SH2 domain (domain or fragment)
chain: WFHEGLSRHQAENLLMGKEVGFFIIRASQSSPGDFSISVRHEDDVQHFKVMRDNKGNYFLWTEKFPSLNKLVDYYRTNSISRQKQIFLRDRT
Which Kd [1] does the source give for B1 here?
Its Kd is 1 µM.

What about the Kd [2] of the same binder?
The Kd was 1 µM.

What about the Kd [3] of the same binder?
The Kd was 1 µM.

B2: TNS3 SH2 domain (domain or fragment)
chain: WYKADISREQAIAMLKDKEPGSFIVRDSHSFRGAYGLAMKVATPPPSVLQLNKKAGDLANELVRHFLIECTPKGVRLKGCSNEPYFGSLTALVCQHSITPLALPCKLLIPE
For B2, which Kd [4] is on record?
Its Kd is 5.35 µM.

What about the Kd [5] of the same binder?
The Kd was 5.89 µM.

B3: SHC3 SH2 domain (domain or fragment)
chain: WYQGEMSRKEAEGLLEKDGDFLVRKSTTNPGSFVLTGMHNGQAKHLLLVDPEGTIRTKDRVFDSISHLINHHLESSLPIVSAGSELCLQQPV
B3 was tested. Which Kd [6] did it give?
Its Kd is 0.54 µM.

B4: VAV2 SH2 domain (domain or fragment)
chain: WFAGNMERQQTDNLLKSHASGTYLIRERPAEAERFAISIKFNDEVKHIKVVEKDNWIHITEAKKFDSLLELVEYYQCHSLKESFKQLDTTLKYPY
How did the Kd [5] turn out when B4 was run?
The Kd was 17 µM.
